Results as given in article PMC4514675, “Novel Apo E-Derived ABCA1 Agonist Peptide (CS-6253) Promotes Reverse Cholesterol Transport and Induces Formation of preβ-1 HDL In Vitro” (PLoS ONE, 2015).
Several values for one entry are separate records, joined by “and”; a condition that tells them apart may be missing. Identical values can stand only once.

How the values were obtained:
SR-BI = assay: SR-BI-mediated cholesterol uptake in Fu5AH hepatoma cells; type: cell-based, rat; settings: 2 h pretreatment of Fu5AH cells; uptake from CS-6253 or apo A-I nHDL
Procedure: J774 cells were labeled for 24h with ^3[H]-cholesterol (Perkin Elmer, Norwalk, Connecticut) in medium containing 1% FBS. Unlabeled rat Fu5AH hepatoma cells that express high levels of SR-BI, were prepared as described previously. Fu5AH were first seeded on 24-well plate at a density of 2x10^5 cells/well in DMEM plus 10% FBS. SR-BI mediated cholesterol uptake is determined as previously reported. The nHDL particles were generated in media cell culture after 6h incubation of cAMP stimulated J774 cells with increased molar concentrations relative to native apo A-I of lipid free CS-6253 (0, 0.018, 0.071, 0.179, 0.357, 0.536, 0.714, and 1.071 μM). […] The total of ^3H-label present in the lipid extract from cells (% cpm) was quantified by liquid scintillation, and plotted as cell-associated radioactivity as described by Yancey et al.. The contribution of SR-BI to the influx of HDL cholesterol (HDL-C) was assessed by a 2h pretreatment of Fu5AH cells with blocker of lipid transport-1 (BLT-1) to inhibit any transport of cholesterol from HDL to the cells via SR-BI [31]. […]
Fig 10 Uptake of cholesterol to hepatic cells expressing SR-BI from plasma containing HDL-CS-6253 or HDL-apo A-I. A. Fu5AH liver hepatoma cells expression of SR-BI transporter ability. […] Protein concentration was determined by standard assay (Bio-Rad). […]

[1] = tested on: HDL subpopulations in human plasma; assay: HDL subpopulation remodelling (preβ-1 HDL formation) in human plasma, 2D-PAGGE; settings: 10 μg lipid free apoA-I: 1 μg plasma apoA-I, 37°C
Procedure: Apo A-I and CS-6253-containing particles were separated according to charge (agarose, horizontal axis) and size (polyacrylamide gradient, 3% to 20% gel, vertical axis) as previously described. Apo A-I-containing particles were detected by incubating the membranes with immunopurified polyclonal anti-apo A-I antibody (Biodesign). The nHDL-CS-6253 containing particles were detected with immunopurified polyclonal anti-CS-6253 antibody (Biosynthesis Inc., Lewisville, TX). The anti-CS-6253 is a purified rabbit IgG polyclonal antibody specifically produced by Biosynthesis Inc. It is. Cross reactivity of this antibody was verified by Nondenaturing gradient gel electrophoresis (ND-PAGGE) 5% to 35% [24]. The anti-CS-6253 antibody recognizes only CS-6253 peptide in plasma; neither apo A-I nor apo E were detected by this antibody after separation by gradient gel electrophoresis respectively (Fig 1A, 1B and 1C). […]
Fig 8 Time dependent effects of incubation of lipid free CS-6253 with human plasma, on HDL subparticles. […] HDL subpopulations were detected by an anti-apo A-I antibody. […] HDL subfractions were detected by an antibody against CS-6253. […]
Fig 9 Time dependent effects of incubation of lipid free CS-6253 with human plasma, on HDL subparticles. […] Samples were separated by 2D-PAGGE, and ^125I-apoA-I was detected by autoradiography. […]

ABCA1 = ABCA1 (Homo sapiens, UniProt O95477); assay: ABCA1-mediated cholesterol efflux from BHK-ABCA1 cells, acceptor in media; type: cell-based; set-up: expressed in transfected cells; host or cells: BHK cells, stably transfected, induced with 10 nM mifepristone (gift of J. F. Oram); settings: BHK-ABCA1 induced with mifepristone, 4 h, 37°C, mean ± SD
ABCA1, sequence (O95477 whole entry): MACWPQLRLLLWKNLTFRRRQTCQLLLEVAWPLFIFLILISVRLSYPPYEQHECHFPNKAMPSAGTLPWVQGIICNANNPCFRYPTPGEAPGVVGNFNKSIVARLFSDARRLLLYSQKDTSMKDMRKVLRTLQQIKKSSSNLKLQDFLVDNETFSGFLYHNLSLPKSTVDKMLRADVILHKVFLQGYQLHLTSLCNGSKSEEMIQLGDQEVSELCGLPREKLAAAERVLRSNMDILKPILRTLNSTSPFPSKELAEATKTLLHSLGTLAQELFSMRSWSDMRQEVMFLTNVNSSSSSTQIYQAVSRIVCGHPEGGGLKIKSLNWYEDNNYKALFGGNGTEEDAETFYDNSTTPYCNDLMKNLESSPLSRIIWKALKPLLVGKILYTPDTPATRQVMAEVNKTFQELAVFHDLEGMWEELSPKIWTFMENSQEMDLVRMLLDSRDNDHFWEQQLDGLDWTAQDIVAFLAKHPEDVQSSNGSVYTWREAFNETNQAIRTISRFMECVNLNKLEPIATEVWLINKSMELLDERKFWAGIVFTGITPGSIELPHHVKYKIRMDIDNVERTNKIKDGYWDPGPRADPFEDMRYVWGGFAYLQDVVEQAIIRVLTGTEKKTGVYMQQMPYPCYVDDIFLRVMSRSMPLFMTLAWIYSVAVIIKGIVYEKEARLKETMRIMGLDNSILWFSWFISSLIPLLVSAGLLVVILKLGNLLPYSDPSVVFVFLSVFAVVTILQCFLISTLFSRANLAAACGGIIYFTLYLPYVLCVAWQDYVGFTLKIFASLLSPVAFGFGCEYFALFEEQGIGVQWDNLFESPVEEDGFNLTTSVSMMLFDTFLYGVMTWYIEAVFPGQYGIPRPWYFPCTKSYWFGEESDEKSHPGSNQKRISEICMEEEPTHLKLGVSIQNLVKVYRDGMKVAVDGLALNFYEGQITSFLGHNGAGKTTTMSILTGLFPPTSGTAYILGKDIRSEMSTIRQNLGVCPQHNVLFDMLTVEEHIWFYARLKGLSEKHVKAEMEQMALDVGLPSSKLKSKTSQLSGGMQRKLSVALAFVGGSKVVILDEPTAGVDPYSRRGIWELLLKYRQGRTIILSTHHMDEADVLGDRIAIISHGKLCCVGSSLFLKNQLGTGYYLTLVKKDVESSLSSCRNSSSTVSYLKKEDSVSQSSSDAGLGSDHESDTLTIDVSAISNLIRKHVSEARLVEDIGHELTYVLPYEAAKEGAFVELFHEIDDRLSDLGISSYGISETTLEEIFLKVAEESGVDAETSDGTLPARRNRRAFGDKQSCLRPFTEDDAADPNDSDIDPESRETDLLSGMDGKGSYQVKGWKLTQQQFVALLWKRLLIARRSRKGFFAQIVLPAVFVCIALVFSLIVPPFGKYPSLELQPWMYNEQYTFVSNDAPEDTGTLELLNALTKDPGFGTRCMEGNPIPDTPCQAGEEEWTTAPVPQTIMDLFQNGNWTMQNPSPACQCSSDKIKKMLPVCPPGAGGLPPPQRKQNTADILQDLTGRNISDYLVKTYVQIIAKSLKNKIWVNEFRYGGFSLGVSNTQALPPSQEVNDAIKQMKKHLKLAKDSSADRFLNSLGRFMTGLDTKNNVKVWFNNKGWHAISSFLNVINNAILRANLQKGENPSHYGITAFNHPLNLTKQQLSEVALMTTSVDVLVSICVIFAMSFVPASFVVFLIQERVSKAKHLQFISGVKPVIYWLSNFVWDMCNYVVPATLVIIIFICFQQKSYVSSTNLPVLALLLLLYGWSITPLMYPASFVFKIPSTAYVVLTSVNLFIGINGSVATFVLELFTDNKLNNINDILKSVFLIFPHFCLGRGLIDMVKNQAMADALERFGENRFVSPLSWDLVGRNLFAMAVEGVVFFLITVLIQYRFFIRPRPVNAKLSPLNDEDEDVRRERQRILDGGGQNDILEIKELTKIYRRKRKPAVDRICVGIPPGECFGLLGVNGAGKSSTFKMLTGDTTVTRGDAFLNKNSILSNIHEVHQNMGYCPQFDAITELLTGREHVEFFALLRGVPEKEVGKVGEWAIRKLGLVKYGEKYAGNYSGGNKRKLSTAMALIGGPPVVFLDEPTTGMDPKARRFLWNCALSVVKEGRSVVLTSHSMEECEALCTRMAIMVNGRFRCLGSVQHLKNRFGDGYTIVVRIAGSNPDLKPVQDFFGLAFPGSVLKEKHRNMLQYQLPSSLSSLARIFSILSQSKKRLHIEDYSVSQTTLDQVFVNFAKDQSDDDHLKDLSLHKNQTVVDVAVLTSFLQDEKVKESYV
Excerpt: BHK cells stably transfected with an ABCA1 or ABCG1 expression vector that is mifepristone inducible and cells transfected with the same vector lacking the ABCA1 cDNA insert (mutant or mock-transfected) were generously provided by the late Dr. John F. Oram from the Department of Medicine, University of Washington, and were characterized and cultured as previously described. […] Mouse-derived peritoneal macrophages J774 were purchased from American Tissue Culture Collection (ATCC TIB-67, Cederlane, Burlington, Canada). For induction of ABCA1, BHK cells were incubated for 18–20 h with 10 nM mifepristone. J774 macrophages were stimulated with 0.3 mM Cpt-cAMP 8-(4-Chlorophenylthio)-cyclic adenosine monophosphate (Sigma). All BHK and J774 macrophages cells were respectively grown and maintained in DMEM and RPMI containing 10% fetal serum until experimental treatment. Studies were carried out on standard 24-well plates (150,000 cells/well) unless stated otherwise
We investigated cholesterol efflux from BHK cells after adding lipid free CS-6253 to media cell culture or to human EDTA-plasma which had been stored at -80°C. BHK overexpressing human ABCA1 were labeled with 2 μCi/ml ^3H-free cholesterol (Perkin Elmer, Norwalk, Connecticut) for 24 h. Afterward, BHK-ABCA1 were stimulated with 10 nmol/l mifepristone for 18–20 h (13). Cells were incubated with various doses of acceptor in media for 4 h at 37°C. Alternatively, plasma samples were first pre-incubated for 5 min at 37°C in plasma at mole ratios (10:1 or 1:1 relative to plasma apo A-I). To obtain the HDL fraction, apoB lipoproteins were precipitated from plasma by polyethylene glycol (PEG). […]
Fig 2 Effect of CS-6253 treatment on cholesterol efflux. […] Cholesterol efflux from either ABCA1 cells or control cells to apo A-I (closed circles), and CS-6253 (closed triangles) was determined at the indicated time points. […] ABCA1 was detected from THP-1 foam cells lysis at 4°C with lysis buffer containing 0.5% n-dodecylmaltoside in the presence of a protease inhibitor mixture followed by low speed centrifugation to remove cell debris. Protein concentration was determined by standard assay (Bio-Rad). […] After electrophoresis, ABCA1 was detected by an anti-ABCA1 antibody. […] E. Quantification of FC and CE in foam cells after interaction with CS-6253 and apoA-I. After a period of 4h cholesterol efflux, THP-1 foam cell lipids were extracted with hexane: isopropanol (3v/2v) as under ‘‘Material and Methods’. 3[H]-FC and 3[H]-CE were separated by TLC and located by exposure to iodine vapor, and were scraped off into liquid scintillating vials and assayed for radioactivity. […]

[2] = biological target: ABCA1 (human, expressed in BHK cells) (human) (UniProt O95477); assay: cross-linking; intact mifepristone-stimulated BHK-ABCA1 cells in the presence of apo A-I or CS-6253 (0.96 μM), cross-linked or not with 500 μM DSP; lysis with 0.5% n-dodecylmaltoside; SDS-PAGE (4–22.5%), anti-ABCA1 blot; no DTT
LCAT = LCAT activity (fractional esterification rate) in human plasma; type: biochemical; settings: 2 mM DTNB, 1 h, 37°C
Procedure: Supplementary file pone.0131997.s011.tif: S10 Fig Dynamics of esterification of nascent […]-6253 particles were labelled with cell derived ^3[H]cholesterol and incubated with a normolipidemic plasma at a ratio of (1μg peptide: 10μg plasma apo A-I). LCAT activity was determined after incubation for 1h at 37°C in the presence or absence of 2 mM DTNB. After lipid extraction, ^3[H]cholesterol (unesterified) and ^3[H]CE from plasma were separated by TLC and assayed for radioactivity as described in the online-only Supplementary appendix, S1 Appendix. LCAT activity was measured as CE divided by cholesterol/h. Results are mean (±SD) of triplicate experiments. *P<0.05. (TIF) Click here for additional data file. The fractional cholesterol esterification rate (FER) of LCAT activity was assayed with standard methodology (1,2). […] Cholesterol labeled nHDL particles, Lp-CS-6253 or […] plasma apo A-I), are incubated in total plasma pooled from healthy control subjects for 1h at 37 °C (3). This ratio is selected based on the assumption that the in vivo nascent HDL pool represented ∼10% of total plasma apoA-I mass (4). […] Cellular lipids were extracted and ^3[H]cholesterol and ^3[H]cholesteryl esters (CE) were separated by TLC. The lipids ^3[H]free cholesterol and ^3[H]CE were located by exposure to iodine vapor, and were scraped into liquid scintillating vials and assayed for radioactivity. […]

CCCCCCC1CCCC1=NNC(N)=S (stereo not drawn) [BLT-1]
effect on cholesterol uptake (in words) (SR-BI): inhibited uptake of cholesterol from CS-6253 or apo A-I nHDL

^125I-lipid free apoA-I: apo A-I iodinated with 125I by Iodo-Gen
increase in preβ-1 particles, 5 min (125I-apoA-I control) ([1]; 5 min): 0.23 fold
increase in preβ-1 particles, 2 h (125I-apoA-I control) ([1]; 2 h): 0.4 fold

apolipoprotein E [apo E]
Km, cholesterol efflux (ABCA1): 10.30±2.84 μg/ml and 0.21±0.05 μM
Vmax, cholesterol efflux (ABCA1): 11.45±1.16 % efflux/4h

ABCA1 (human, expressed in BHK cells), O95477 1-2261
ratio of ABCA1 dimer: monomer (cells with CS-6253) [2]: 56.5%
ratio of ABCA1 dimer: monomer (cells with apo A-I) [2]: 69.2%
stoichiometry N [2]: 2

O=C(O)c1cc(SSc2ccc([N+](=O)[O-])c(C(=O)O)c2)ccc1[N+](=O)[O-] [DTNB, 5,5′-Dithiobis(2-nitrobenzoic acid)]
inhibition of LCAT (LCAT): 98.37 ± 0.08%
